Data: PMC5292662, “PKU mutation p.G46S prevents the stereospecific binding of L‐phenylalanine to the dimer of human phenylalanine hydroxylase regulatory domain” (FEBS Open Bio, 2017)

Biological target: the molecule itself
Assay: SEC; HiLoad Superdex 200 HR column (1.6 cm × 60 cm), 20 mM Na‐Hepes, 0.2 M NaCl, pH 7.0, 0.38 mL·min^−1, 4 °C; masses estimated from standard markers; dimer to monomers

Protein | stoichiometry N
wt‐MBP‐(pep)Xa‐hPAH‐RD^1–120 fusion protein (domain or fragment, human, UniProt P00439 1-120, looked up, N-terminal regulatory domain (RD) of human phenylalanine hydroxylase (hPAH), residues 1-120 (stop signal introduced in codon 121), SwissProt P00439; From pMAL‐hPAH‐RD^1–120 (pMAL-c2 vector); a factor Xa cleavage peptide (pep)Xa lies between MBP and the RD; Isolated by SEC as a dimeric and a monomeric fraction; also called MBP‐hPAH‐RD^1–120; wt‐MBP‐hPAH‐RD; source: E. coli, purified (amylose …)) MSTAVLENPGLGRKLSDFGQETSYIEDNCNQNGAISLIFSLKEEVGALAKVLRLFEENDVNLTHIESRPSRLKKDEYEFFTHLDKRSLPALTNIIKILRHDIGATVHELSRDKKKDTVPW | 2
MBP‐hPAH‐G46S‐RD^1–120 fusion protein (domain or fragment, human, UniProt P00439 1-120, looked up, From pMAL‐hPAH‐G46S‐RD^1–120; a factor Xa cleavage peptide lies between MBP and the RD; G46S is a mutation found in patients with phenylketonuria; also called hPAH‐G46S‐RD^1–120 dimer fusion protein; source: E. coli, purified (amylose resin, SEC); not shown: MBP, N-terminal, kept) MSTAVLENPGLGRKLSDFGQETSYIEDNCNQNGAISLIFSLKEEVSALAKVLRLFEENDVNLTHIESRPSRLKKDEYEFFTHLDKRSLPALTNIIKILRHDIGATVHELSRDKKKDTVPW | 2
